B1: TRIM63 (parent)
chain: ANPYWTSRGSSVSMSGGRFRCPTC
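Also: lentivirally expressed fusions sorted by FACS into six bins by GFP to DsRed ratio, PSI derived from sequencing read proportions per bin multiplied by bin number.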

The variants in this data set derive from B1. Nature of the data set: protein stability index of a GFP-peptide fusion (GPS, HEK-293T) (PSI 1-6); higher = more stable. To be noted: c terminus: a fixed tail appended.
With ANRYWTSRGSSVSMSGGRFRCPTC [P3R], the protein stability index was 1.84.
To ANFYWTSRGSSVSMSGGRFRCPTC [P3F] belongs 2.13.
The same measure for ANYYWTSRGSSVSMSGGRFRCPTC [P3Y]: 2.38; for ANTYWTSRGSSVSMSGGRFRCPTC [P3T]: 2.08; for ANSYWTSRGSSVSMSGGRFRCPTC [P3S]: 1.36.
As to ANPYWTSRGSSTSMSGGRFRCPTC [V12T], the protein stability index was 2.9.
On to ANPYWTSRGSSKSMSGGRFRCPTC [V12K], for which the protein stability index stood at 2.19.
The same measure for ANPYWTSRGSSDSMSGGRFRCPTC [V12D]: 1.67; for ANPYWTSRGSSESMSGGRFRCPTC [V12E]: 2.16.
The same measure for ANPYWTSRGSSWSMSGGRFRCPTC [V12W]: 2.87; for ANPYWTSRGSSMSMSGGRFRCPTC [V12M]: 1.63; for ANPYWTSRGSSNSMSGGRFRCPTC [V12N]: 2.03.
In the case of ALPYWTSRGSSVSMSGGRFRCPTC [N2L], the protein stability index was 1.37.
In the case of AGPYWTSRGSSVSMSGGRFRCPTC [N2G], the protein stability index was 1.84.
Consider AHPYWTSRGSSVSMSGGRFRCPTC [N2H], for which the protein stability index turned out to be 2.3.
With ACPYWTSRGSSVSMSGGRFRCPTC [N2C], the protein stability index is 2.43.
In the case of ATPYWTSRGSSVSMSGGRFRCPTC [N2T], the protein stability index is 1.73.
Take AEPYWTSRGSSVSMSGGRFRCPTC [N2E]: the protein stability index is 2.51.
As for AFPYWTSRGSSVSMSGGRFRCPTC [N2F], the protein stability index was 1.6.
With ASPYWTSRGSSVSMSGGRFRCPTC [N2S], the protein stability index stood at 1.89.
ANPYWTSRGSSVGMSGGRFRCPTC [S13G]: the protein stability index stood at 3.37.
Regarding ANPYWTSRGSSVVMSGGRFRCPTC [S13V], the protein stability index worked out at 1.89.
Regarding ANPYWTSRGSSVHMSGGRFRCPTC [S13H], the protein stability index was 1.9.
For ANPYWTSRGSSVWMSGGRFRCPTC [S13W], the protein stability index turned out to be 1.79.
As to ANPYWTSRGSSVCMSGGRFRCPTC [S13C], the protein stability index was determined as 2.02.
For the variant ANPYWTSRGSSVPMSGGRFRCPTC [S13P], the protein stability index was determined as 2.21.
For the variant ANPYWTSRGSSVRMSGGRFRCPTC [S13R], the protein stability index worked out at 1.52.
In the case of ANPYWTSRGSSVFMSGGRFRCPTC [S13F], the protein stability index came to 1.93.
Consider ANPYWTSRGSSVLMSGGRFRCPTC [S13L], for which the protein stability index came to 2.07.
Regarding ANPYWTSRGSSVNMSGGRFRCPTC [S13N], the protein stability index was 2.18.
Turning to ANPYWTSRGSSVIMSGGRFRCPTC [S13I], the protein stability index stood at 1.58.
To ANPYWTSRGSSVYMSGGRFRCPTC [S13Y] belongs 2.18; to ANPYWTSRGSSVQMSGGRFRCPTC [S13Q], 2.13; to ANPYWTSRGSSVAMSGGRFRCPTC [S13A], 1.9.
Turning to ANPYWTSRGSSVSMSGHRFRCPTC [G17H], the protein stability index is 1.53.
Take ANPYWTSRGSSVSMSGSRFRCPTC [G17S]: the protein stability index is 2.26.
For ANPYWTSRGSSVSMSGNRFRCPTC [G17N], the protein stability index is 1.75.
For the variant ANPYWTSRGSSVSMSGIRFRCPTC [G17I], the protein stability index worked out at 2.27.
In the case of ANPYWTSRGSSVSMSGCRFRCPTC [G17C], the protein stability index stood at 1.98.
On to ANPYWTSRGSSVSMSGARFRCPTC [G17A], for which the protein stability index is 1.84.
In the case of RNPYWTSRGSSVSMSGGRFRCPTC [A1R], the protein stability index is 2.08.
Regarding INPYWTSRGSSVSMSGGRFRCPTC [A1I], the protein stability index was 1.53.
Regarding KNPYWTSRGSSVSMSGGRFRCPTC [A1K], the protein stability index is 2.1.
As to PNPYWTSRGSSVSMSGGRFRCPTC [A1P], the protein stability index worked out at 1.28.
To DNPYWTSRGSSVSMSGGRFRCPTC [A1D] belongs 1.67; to GNPYWTSRGSSVSMSGGRFRCPTC [A1G], 1.66; to QNPYWTSRGSSVSMSGGRFRCPTC [A1Q], 1.49.
Regarding LNPYWTSRGSSVSMSGGRFRCPTC [A1L], the protein stability index came to 1.89.
Turning to SNPYWTSRGSSVSMSGGRFRCPTC [A1S], the protein stability index is 2.69.
Turning to ENPYWTSRGSSVSMSGGRFRCPTC [A1E], the protein stability index was 2.31.
On to ANPYWTSRGSSVSMSGGRDRCPTC [F19D], for which the protein stability index is 2.75.
As to ANPYWTSRGSSVSMSGGRTRCPTC [F19T], the protein stability index came out at 2.94.
ANPYWTSRGSSVSMSGGRARCPTC [F19A]: the protein stability index was 2.04.
Regarding ANPYWTSRGSSVSMSGGRMRCPTC [F19M], the protein stability index was found to be 2.79.
In the case of ANPYWTSRGSSVSMSGGRGRCPTC [F19G], the protein stability index is 3.02.
ANPYWTSRGSSVSMSGGRSRCPTC [F19S]: the protein stability index came to 3.07.
As for ANPYWTSRGSSVSMSGGRYRCPTC [F19Y], the protein stability index turned out to be 2.04.
For the variant ANPYWTSRGSSVSMSGGRERCPTC [F19E], the protein stability index came to 3.29.
As for ANPYWTSRGSSVSMSGGRPRCPTC [F19P], the protein stability index was determined as 2.25.
The same measure for ANPYWTSRGSSVSHSGGRFRCPTC [M14H]: 2.21.
The same measure for ANPYWTSRGSSVSQSGGRFRCPTC [M14Q]: 1.41; for ANPYWTSRGSSVSVSGGRFRCPTC [M14V]: 1.86; for ANPYWTSRGSSVSFSGGRFRCPTC [M14F]: 2.04.
To ANPYWCSRGSSVSMSGGRFRCPTC [T6C] belongs 1.58.
In the case of ANPYWKSRGSSVSMSGGRFRCPTC [T6K], the protein stability index is 1.56.
To ANPYWMSRGSSVSMSGGRFRCPTC [T6M] belongs 2.24; to ANPYWWSRGSSVSMSGGRFRCPTC [T6W], 1.48.
For the variant ANPYWNSRGSSVSMSGGRFRCPTC [T6N], the protein stability index came to 1.74.
For ANPYWYSRGSSVSMSGGRFRCPTC [T6Y], the protein stability index was found to be 1.69.
To ANPYWESRGSSVSMSGGRFRCPTC [T6E] belongs 1.51; to ANPYWASRGSSVSMSGGRFRCPTC [T6A], 2.1; to ANPYWRSRGSSVSMSGGRFRCPTC [T6R], 2.2.
On to ANPYWPSRGSSVSMSGGRFRCPTC [T6P], for which the protein stability index is 1.66.
With ANPMWTSRGSSVSMSGGRFRCPTC [Y4M], the protein stability index came out at 1.75.
For ANPCWTSRGSSVSMSGGRFRCPTC [Y4C], the protein stability index came out at 2.92.
For ANPTWTSRGSSVSMSGGRFRCPTC [Y4T], the protein stability index stood at 2.17.
The same measure for ANPAWTSRGSSVSMSGGRFRCPTC [Y4A]: 1.33; for ANPVWTSRGSSVSMSGGRFRCPTC [Y4V]: 1.56; for ANPRWTSRGSSVSMSGGRFRCPTC [Y4R]: 1.47.
The same measure for ANPKWTSRGSSVSMSGGRFRCPTC [Y4K]: 2.09; for ANPQWTSRGSSVSMSGGRFRCPTC [Y4Q]: 1.69.
The same measure for ANPYWTSRGSSVSMSGGRFRRPTC [C21R]: 2.77.
Consider ANPYWTSRGSSVSMSGGRFRIPTC [C21I], for which the protein stability index came out at 2.67.
In the case of ANPYWTSRGSSVSMSGGRFRYPTC [C21Y], the protein stability index came to 2.15.
For ANPYWTSRGSSVSMSGGRFRCPTQ [C24Q], the protein stability index was 2.12.
In the case of ANPYWTSRGSSVSMSGGRFRCPTG [C24G], the protein stability index is 3.18.
Turning to ANPYWTSRGSSVSMSGGRFRCPTE [C24E], the protein stability index was 3.19.
With ANPYWTSRGSSVSMSGGRFRCPTK [C24K], the protein stability index amounted to 2.84.
To ANPYWTSRGSSVSMSGGRFRCPTF [C24F] belongs 2.55.
For ANPYWTSRGSSVSMSGGRFRCPTP [C24P], the protein stability index turned out to be 3.22.
As to ANPYWTSRGSSVSMSGGDFRCPTC [R18D], the protein stability index was 2.16.
Regarding ANPYWTSRGSSVSMSGGAFRCPTC [R18A], the protein stability index came out at 1.89.
As for ANPYWTSRGSSVSMSGGKFRCPTC [R18K], the protein stability index stood at 1.44.
For the variant ANPYWTSRGSSVSMSGGIFRCPTC [R18I], the protein stability index was 1.37.
